Reference: patent publication US20200282021A1 (GENEXINE, published 2020)

Experiments:
[1] = molecular target: GLP-1 receptor expressed on the transgenic cell line GLP1R_cAMP/luc; test: cell-based or functional assay
[2] = molecular target: T1, human GLP-1 receptor (Abcam) (human, UniProt P43220 24-145, limits assumed); test: SPR (Proteon XPR36), human GLP-1 receptor immobilised
T1 construct: Bought recombinant protein
Experimental: (§1) Binding affinity of each TAs were evaluated by SPR (Proteon XPR36, BIO-RAD) and based on the protocol modified from general procedure of SPR analysis in published paper. Specifically, the proteon GLC chip (BIO-RAD, USA) was stabilized with PBST (PBS+0.01% tween 20, pH 7.4). Stabilized GLC chip was activated with 150 uL of Sulfo-NHS (0.001 M) and EDC (0.04M) (1:1) followed by immobilization of 10 ug/mL human GLP-1 receptor (Abcam, UK) diluted in acetate buffer (pH 5.0). After immobilization level was recorded and deactivation by 1 M Ethanolamine-HCl (pH 8.5), different concentrations of Dulaglutide and GLP-1-gFc (0, 1.25, 2.5, 5, 10 uM) were injected to each channel of chip. Chip was regenerated by 25 mM NaOH and checked ‘Zero base’ before repeated analysis of same molecule or other TA. All binding sesorgrams were collected, processed, and analyzed using the integrated Proteon Manager software (Bio-RAD, USA). Binding curves were fitted using the Laugmuir model.

[3] = molecular target: T1, human GLP-1 receptor (Abcam); test: SPR (Proteon XPR36), human GLP-1 receptor immobilised, analyte 0-10 uM, Langmuir fit
Experimental: as §1

B1: GLP-1(A2G)-hyFc9 (Fc fusion)
chain: HGEGTFTSDVSSYLEGQAAKEFIAWLVKGRGAKATTAPATTRNTGRGGEEKKKEKEKEEQEERETKTPECPSHTQPLGVFLFPPKPKDTLMISRTPEVTCVVVDVSQEDPEVQFNWYVDGVEVHNAKTKPREEQFNSTYRVVSVLTVLHQDWLNGKEYKCKVSNKGLPSSIEKTISKAKGQPREPQVYTLPPSQEEMTKNQVSLTCLVKGFYPSDIAVEWESNGQPENNYKTTPPVLDSDGSFFLYSRLTVDKSRWQEGNVFSCSVMHEALHNHYTQKSLSLSLGK
modifications: O-glycosylation at the IgD hinge region (positions not stated)
notes: also called GLP-1-gFc; GLP-1-hyFc9
EC50, cAMP-dependent luciferase reporter in GLP-1R over-expressing cells [1]: 23.3 pM | fold difference of EC50 against Dulaglutide, cAMP-dependent luciferase reporter [1]: 3.5 fold | fold koff against Dulaglutide [2]: ~10 fold | fold kon against Dulaglutide [2]: 1.7 fold | Kd [3]: 16 µM
